From article PMC4434323

Assays:
[1] = tested on: T1, nhr-216 (T09D3.4) (Caenorhabditis elegans)
T1 sequence: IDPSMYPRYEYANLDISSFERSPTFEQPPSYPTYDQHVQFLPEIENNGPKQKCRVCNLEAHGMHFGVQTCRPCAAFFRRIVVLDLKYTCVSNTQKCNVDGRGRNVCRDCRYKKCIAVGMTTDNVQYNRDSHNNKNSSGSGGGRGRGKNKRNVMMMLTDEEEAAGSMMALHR

[2] = biological target: T2, nhr-142 (F44E7.8) (Caenorhabditis elegans) (UniProt J7SF93)
T2 sequence: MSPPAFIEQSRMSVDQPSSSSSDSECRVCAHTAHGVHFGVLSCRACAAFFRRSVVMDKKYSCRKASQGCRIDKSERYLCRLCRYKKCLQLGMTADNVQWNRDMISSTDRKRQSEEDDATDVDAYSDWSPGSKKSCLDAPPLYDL

[3] = biological target: T3, nhr-232 (Y22F5A.1) (Caenorhabditis elegans) (UniProt A0A486WVR6)
T3 sequence: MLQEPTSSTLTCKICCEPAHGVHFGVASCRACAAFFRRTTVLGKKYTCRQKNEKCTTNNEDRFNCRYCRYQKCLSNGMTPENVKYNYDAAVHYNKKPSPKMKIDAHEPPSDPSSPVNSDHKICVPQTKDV

[4] = biological target: T4, nhr-1 (R09G11.2) (Caenorhabditis elegans) (UniProt Q21878)
T4 sequence: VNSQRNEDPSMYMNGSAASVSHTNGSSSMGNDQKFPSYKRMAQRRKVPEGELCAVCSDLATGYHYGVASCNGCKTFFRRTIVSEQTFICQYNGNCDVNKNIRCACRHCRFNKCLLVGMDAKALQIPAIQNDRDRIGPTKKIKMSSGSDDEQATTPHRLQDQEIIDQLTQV

[5] = biological target: T5, nhr-42 (C33G8.6) (Caenorhabditis elegans) (UniProt O76828)
T5 sequence: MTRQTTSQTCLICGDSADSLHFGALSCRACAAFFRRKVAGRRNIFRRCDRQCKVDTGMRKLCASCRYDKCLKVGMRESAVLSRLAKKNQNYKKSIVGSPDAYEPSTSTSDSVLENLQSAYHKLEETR

[6] = biological target: T6, nhr-66 (T09A12.4) (Caenorhabditis elegans) (UniProt H2KYJ8)
T6 sequence: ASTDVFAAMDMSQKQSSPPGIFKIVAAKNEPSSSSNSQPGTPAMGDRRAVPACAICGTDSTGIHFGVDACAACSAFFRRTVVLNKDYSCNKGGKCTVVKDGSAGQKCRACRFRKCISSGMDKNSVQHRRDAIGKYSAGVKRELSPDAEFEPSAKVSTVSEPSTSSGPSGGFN

[7] = biological target: T7, odr-7 (T18D3.2) (Caenorhabditis elegans) (UniProt P41933)
T7 sequence: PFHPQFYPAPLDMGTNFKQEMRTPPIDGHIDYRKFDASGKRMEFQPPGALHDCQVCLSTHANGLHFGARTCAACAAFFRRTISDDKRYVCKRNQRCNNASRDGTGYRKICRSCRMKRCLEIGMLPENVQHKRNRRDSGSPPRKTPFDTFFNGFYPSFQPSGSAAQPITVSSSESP

[8] = biological target: T8, nhr-204 (R02C2.4) (Caenorhabditis elegans) (UniProt O44543)
T8 sequence: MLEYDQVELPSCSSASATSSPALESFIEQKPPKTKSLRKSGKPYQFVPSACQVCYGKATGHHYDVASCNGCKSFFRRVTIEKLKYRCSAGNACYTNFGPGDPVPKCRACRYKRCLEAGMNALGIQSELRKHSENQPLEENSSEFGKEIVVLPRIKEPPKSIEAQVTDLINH

[9] = biological target: nhr-34 (F58G6.5) (Caenorhabditis elegans) (UniProt Q21006)
nhr-34 (F58G6.5) (Caenorhabditis elegans), sequence (Q21006 99-268): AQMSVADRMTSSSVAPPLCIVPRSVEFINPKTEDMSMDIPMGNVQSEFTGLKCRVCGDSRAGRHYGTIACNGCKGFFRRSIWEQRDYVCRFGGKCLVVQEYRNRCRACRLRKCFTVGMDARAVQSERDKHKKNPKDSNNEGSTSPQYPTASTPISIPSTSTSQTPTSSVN

[10] = biological target: T9, nhr-3 (H01A20.1) (Caenorhabditis elegans) (UniProt Q9XTJ4)
T9 sequence: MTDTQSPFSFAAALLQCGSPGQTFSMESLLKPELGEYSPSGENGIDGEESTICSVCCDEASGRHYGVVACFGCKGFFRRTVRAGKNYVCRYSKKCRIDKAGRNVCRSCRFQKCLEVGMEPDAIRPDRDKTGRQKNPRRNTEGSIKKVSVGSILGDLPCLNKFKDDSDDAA

[11] = biological target: T10, nhr-46 (C45E5.6) (Caenorhabditis elegans) (UniProt Q95QR2)
T10 sequence: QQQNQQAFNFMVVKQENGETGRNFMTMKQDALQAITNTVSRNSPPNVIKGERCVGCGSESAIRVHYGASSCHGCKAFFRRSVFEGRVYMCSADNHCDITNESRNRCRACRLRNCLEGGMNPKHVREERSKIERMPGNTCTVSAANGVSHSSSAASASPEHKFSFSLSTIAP

ATCAGAAC (double strand) [8-mer ATCAGAAC]
binding signal (PBM E-score (-0.5 to 0.5)) [1]: 0.494

GATCAGAA (double strand) [8-mer GATCAGAA]
binding signal (PBM E-score (-0.5 to 0.5)) [1]: 0.497

GGTCAGAA (double strand) [8-mer GGTCAGAA]
binding signal (PBM E-score (-0.5 to 0.5)) [1]: 0.498

GGTCACAA (double strand) [8-mer GGTCACAA]
binding signal (PBM E-score (-0.5 to 0.5)) [2]: 0.495 | binding signal (PBM E-score (-0.5 to 0.5)) [3]: 0.485

ATTCTGAC (double strand) [8-mer ATTCTGAC]
binding signal (PBM E-score (-0.5 to 0.5)) [1]: 0.495

TGTCACAA (double strand) [8-mer TGTCACAA]
binding signal (PBM E-score (-0.5 to 0.5)) [2]: 0.49 | binding signal (PBM E-score (-0.5 to 0.5)) [3]: 0.474

AATGATCA (double strand) [8-mer AATGATCA]
binding signal (PBM E-score (-0.5 to 0.5)) [4]: 0.493

ATCAGAAG (double strand) [8-mer ATCAGAAG]
binding signal (PBM E-score (-0.5 to 0.5)) [1]: 0.494

AGTCATAA (double strand) [8-mer AGTCATAA]
binding signal (PBM E-score (-0.5 to 0.5)) [2]: 0.491 | binding signal (PBM E-score (-0.5 to 0.5)) [3]: 0.48

GTCACAAA (double strand) [8-mer GTCACAAA]
binding signal (PBM E-score (-0.5 to 0.5)) [5]: 0.48 | binding signal (PBM E-score (-0.5 to 0.5)) [2]: 0.498 | binding signal (PBM E-score (-0.5 to 0.5)) [3]: 0.497

AGTCACAA (double strand) [8-mer AGTCACAA]
binding signal (PBM E-score (-0.5 to 0.5)) [5]: 0.489 | binding signal (PBM E-score (-0.5 to 0.5)) [2]: 0.498 | binding signal (PBM E-score (-0.5 to 0.5)) [3]: 0.497

AAGTCACA (double strand) [8-mer AAGTCACA]
binding signal (PBM E-score (-0.5 to 0.5)) [5]: 0.494 | binding signal (PBM E-score (-0.5 to 0.5)) [2]: 0.496 | binding signal (PBM E-score (-0.5 to 0.5)) [3]: 0.498

ACTACAAC (double strand) [8-mer ACTACAAC]
binding signal (PBM E-score (-0.5 to 0.5)) [6]: 0.482

TACAAATA (double strand) [8-mer TACAAATA]
binding signal (PBM E-score (-0.5 to 0.5)) [7]: 0.461

ATTTGTAG (double strand) [8-mer ATTTGTAG]
binding signal (PBM E-score (-0.5 to 0.5)) [7]: 0.479

AGCGATCA (double strand) [8-mer AGCGATCA]
binding signal (PBM E-score (-0.5 to 0.5)) [4]: 0.476

GGACAGAA (double strand) [8-mer GGACAGAA]
binding signal (PBM E-score (-0.5 to 0.5)) [1]: 0.493

CTACAATC (double strand) [8-mer CTACAATC]
binding signal (PBM E-score (-0.5 to 0.5)) [7]: 0.466

AGGGATCA (double strand) [8-mer AGGGATCA]
binding signal (PBM E-score (-0.5 to 0.5)) [4]: 0.479

AAACTACA (double strand) [8-mer AAACTACA]
binding signal (PBM E-score (-0.5 to 0.5)) [6]: 0.484

GTGATCAC (double strand) [8-mer GTGATCAC]
binding signal (PBM E-score (-0.5 to 0.5)) [4]: 0.489

CAACTACA (double strand) [8-mer CAACTACA]
binding signal (PBM E-score (-0.5 to 0.5)) [6]: 0.484

AATTGTAG (double strand) [8-mer AATTGTAG]
binding signal (PBM E-score (-0.5 to 0.5)) [7]: 0.489

GTCACACA (double strand) [8-mer GTCACACA]
binding signal (PBM E-score (-0.5 to 0.5)) [3]: 0.46

ATTGATCA (double strand) [8-mer ATTGATCA]
binding signal (PBM E-score (-0.5 to 0.5)) [8]: 0.489 | binding signal (PBM E-score (-0.5 to 0.5)) [4]: 0.479

CGTCAGAA (double strand) [8-mer CGTCAGAA]
binding signal (PBM E-score (-0.5 to 0.5)) [1]: 0.493

AGACCAAT (double strand) [8-mer AGACCAAT]
binding signal (PBM E-score (-0.5 to 0.5)) [8]: 0.486

GGTGATCA (double strand) [8-mer GGTGATCA]
binding signal (PBM E-score (-0.5 to 0.5)) [4]: 0.488

GTCAGAAC (double strand) [8-mer GTCAGAAC]
binding signal (PBM E-score (-0.5 to 0.5)) [1]: 0.498

AATTGATC (double strand) [8-mer AATTGATC]
binding signal (PBM E-score (-0.5 to 0.5)) [8]: 0.477

TTGATCAA (double strand) [8-mer TTGATCAA]
binding signal (PBM E-score (-0.5 to 0.5)) [8]: 0.493 | binding signal (PBM E-score (-0.5 to 0.5)) [9]: 0.481

GTTGATCA (double strand) [8-mer GTTGATCA]
binding signal (PBM E-score (-0.5 to 0.5)) [8]: 0.482 | binding signal (PBM E-score (-0.5 to 0.5)) [4]: 0.477

GGACACAA (double strand) [8-mer GGACACAA]
binding signal (PBM E-score (-0.5 to 0.5)) [2]: 0.493 | binding signal (PBM E-score (-0.5 to 0.5)) [3]: 0.473

ATTGTAGC (double strand) [8-mer ATTGTAGC]
binding signal (PBM E-score (-0.5 to 0.5)) [7]: 0.487

AATTGTAC (double strand) [8-mer AATTGTAC]
binding signal (PBM E-score (-0.5 to 0.5)) [7]: 0.46

TCTGACCA (double strand) [8-mer TCTGACCA]
binding signal (PBM E-score (-0.5 to 0.5)) [1]: 0.491

AAGTCAGA (double strand) [8-mer AAGTCAGA]
binding signal (PBM E-score (-0.5 to 0.5)) [1]: 0.493

AAATTGTA (double strand) [8-mer AAATTGTA]
binding signal (PBM E-score (-0.5 to 0.5)) [7]: 0.456

ATACAATA (double strand) [8-mer ATACAATA]
binding signal (PBM E-score (-0.5 to 0.5)) [7]: 0.461

ACTGATCA (double strand) [8-mer ACTGATCA]
binding signal (PBM E-score (-0.5 to 0.5)) [8]: 0.477 | binding signal (PBM E-score (-0.5 to 0.5)) [4]: 0.478

CTTCTGAC (double strand) [8-mer CTTCTGAC]
binding signal (PBM E-score (-0.5 to 0.5)) [1]: 0.498

GATGATCA (double strand) [8-mer GATGATCA]
binding signal (PBM E-score (-0.5 to 0.5)) [4]: 0.488

ATTGTGAC (double strand) [8-mer ATTGTGAC]
binding signal (PBM E-score (-0.5 to 0.5)) [2]: 0.494 | binding signal (PBM E-score (-0.5 to 0.5)) [3]: 0.489

AGAGATCA (double strand) [8-mer AGAGATCA]
binding signal (PBM E-score (-0.5 to 0.5)) [4]: 0.474 | binding signal (PBM E-score (-0.5 to 0.5)) [10]: 0.462 | binding signal (PBM E-score (-0.5 to 0.5)) [9]: 0.488 | binding signal (PBM E-score (-0.5 to 0.5)) [11]: 0.478

CAGACCAA (double strand) [8-mer CAGACCAA]
binding signal (PBM E-score (-0.5 to 0.5)) [8]: 0.479

ACTACACA (double strand) [8-mer ACTACACA]
binding signal (PBM E-score (-0.5 to 0.5)) [6]: 0.484

AACTACAC (double strand) [8-mer AACTACAC]
binding signal (PBM E-score (-0.5 to 0.5)) [6]: 0.486

ATGATCAT (double strand) [8-mer ATGATCAT]
binding signal (PBM E-score (-0.5 to 0.5)) [4]: 0.476

AGTGATCA (double strand) [8-mer AGTGATCA]
binding signal (PBM E-score (-0.5 to 0.5)) [4]: 0.495

GACACAAA (double strand) [8-mer GACACAAA]
binding signal (PBM E-score (-0.5 to 0.5)) [3]: 0.475

AATGTAGT (double strand) [8-mer AATGTAGT]
binding signal (PBM E-score (-0.5 to 0.5)) [6]: 0.48

AGTCACAG (double strand) [8-mer AGTCACAG]
binding signal (PBM E-score (-0.5 to 0.5)) [2]: 0.492 | binding signal (PBM E-score (-0.5 to 0.5)) [3]: 0.465

TGTCAGAA (double strand) [8-mer TGTCAGAA]
binding signal (PBM E-score (-0.5 to 0.5)) [1]: 0.496

ACTACACT (double strand) [8-mer ACTACACT]
binding signal (PBM E-score (-0.5 to 0.5)) [6]: 0.487

ACTACACG (double strand) [8-mer ACTACACG]
binding signal (PBM E-score (-0.5 to 0.5)) [6]: 0.481

AATCAGAA (double strand) [8-mer AATCAGAA]
binding signal (PBM E-score (-0.5 to 0.5)) [1]: 0.497

CTGATCAA (double strand) [8-mer CTGATCAA]
binding signal (PBM E-score (-0.5 to 0.5)) [8]: 0.481

GTGATCAA (double strand) [8-mer GTGATCAA]
binding signal (PBM E-score (-0.5 to 0.5)) [8]: 0.478 | binding signal (PBM E-score (-0.5 to 0.5)) [4]: 0.472

ACACAAAA (double strand) [8-mer ACACAAAA]
binding signal (PBM E-score (-0.5 to 0.5)) [3]: 0.465

ATGATCAC (double strand) [8-mer ATGATCAC]
binding signal (PBM E-score (-0.5 to 0.5)) [4]: 0.486

TACTACAA (double strand) [8-mer TACTACAA]
binding signal (PBM E-score (-0.5 to 0.5)) [7]: 0.474

GTCAGAAA (double strand) [8-mer GTCAGAAA]
binding signal (PBM E-score (-0.5 to 0.5)) [1]: 0.496

AGTCAGAA (double strand) [8-mer AGTCAGAA]
binding signal (PBM E-score (-0.5 to 0.5)) [1]: 0.498
